The results in this text go back to paper PMC9911399, “Two distinct binding modes provide the RNA-binding protein RbFox with extraordinary sequence specificity”.

Changes are numbered by the printed parent chain; changes in the protein carry UniProt numbers.

The target of series [1] is T1, RbFoxmut (RRM with four substitutions) (UniProt Q9NWB1).
T1 sequence: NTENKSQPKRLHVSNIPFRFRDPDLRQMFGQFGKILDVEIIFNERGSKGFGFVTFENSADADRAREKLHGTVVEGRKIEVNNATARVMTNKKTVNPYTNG
As to the kind of experiment: EMSA. The conditions noted are these: EMSA: 10 mM Tris pH 7.5, 150 mM NaCl, 3.4 mM EDTA, 0.001% NP-40, 30 C, 10 min, 1 nM RNA, 8% native PAGE; NMR: 10 mM sodium phosphate pH 6.0, 30 mM NaCl, 298 K ….

Series [2] deals with T2, RBFOX1 RRM RbFoxmut (Fox-RRM*) (Homo sapiens, UniProt Q9NWB1 109-208, R118D;E147R;N151S;E152T).
T2 sequence: T1 sequence with R10D, E39R, N43S, E44T
Briefly: EMSA; 10 mM Tris pH 7.5, 150 mM NaCl, 3.4 mM EDTA, 0.001% NP-40, 30 C. The conditions noted are these: tags: His6 N-terminal (pET28a); label: 5' 32P. (A gel shift assay detects complexes by their altered migration in electrophoresis.)

For the next series, the target named is T3, RbFox RRM (wt) (UniProt Q9NWB1 109-208).
T3 sequence: T1 sequence
As to the kind of experiment: EMSA; EMSA: 10 mM Tris pH 7.5, 150 mM NaCl, 3.4 mM EDTA, 0.001% NP-40, 30 C, 10 min, 1 nM RNA, 8% native PAGE; NMR: 10 mM sodium phosphate pH 6.0, 30 mM NaCl, 298 K. The conditions noted are these: protein: recombinant; tags: His6 (HisTrap) for EMSA; His6-GST removed by TEV for NMR; label: 5' 32P (EMSA); unlabeled (NMR).

The target of a further series is T4, RBFOX1 RRM (Homo sapiens, UniProt Q9NWB1 109-208).
T4 sequence: T1 sequence
Briefly: EMSA; 10 mM Tris pH 7.5, 150 mM NaCl, 3.4 mM EDTA, 0.001% NP-40, 30 C. The conditions noted are these: tags: His6 N-terminal (pET28a); label: 5' 32P.

Molecule UGCAUGU [UGCAUGU (cognate)] displayed a K half in series [1] of 14.3 nM.
The same measure, in the same setting: in the case of UGAAUGU it was 35.3 nM.
Regarding UACAUGU, the binding signal in series [1] is -5.01 ln(KA,rel).
With UGCAUGU (ssRNA), in series [2], the “apparent K (half saturation)” value was 14.3 ± 2.5 nM.
As for UGCAUGU (ssRNA) [UGCAUGU (cognate)], the “apparent K (half saturation)” value with RbFox RRM (wt) is 1.6 ± 0.3 nM.
In the case of UGAAUGU (ssRNA), the results for the “apparent K (half saturation)” value (in the series with RBFOX1 RRM; in series [2]) were over 17 µM and 35.3 ± 11.8 nM, respectively.
